Experimental data reported in the supplement of paper PMC12764529.
± gives the half width of the 95% confidence interval.

Columns and labels:
[1] = folding stability dG unfold from chymotrypsin proteolysis; higher = more stable
Method in brief: (§1)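 Bayesian fitting of sequencing counts gave K50 for each design. Unfolding free energy followed by setting this against a sequence-predicted unfolded-state K50 and a shared folded-state K50, either per protease or with trypsin and chymotrypsin combined. The designs, under 80 residues and lacking cysteine, were digested in a PA-tagged cDNA display format at 11 threefold-diluted protease concentrations and without protease, and only those with AlphaFold2 dimer inter-PAE above 15 were kept.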

[2] = folding stability dG unfold (combined trypsin and chymotrypsin); higher = more stable
Method in brief: as §1

[3] = folding stability dG unfold from trypsin proteolysis; higher = more stable
Method in brief: as §1

Sequence	folding stability dG unfold [1] [kcal/mol]	folding stability dG unfold [2] [kcal/mol]	folding stability dG unfold [3] [kcal/mol]
SAGGDALKGLPPGAKVKVERVNGKLVVVVEKVEVKPPPKVTLTLPPGWKLTRLELTEDGTLKAELEPSAGGS [r16_103_TrROS_Hall]	2.13 ± 0.068	1.79 ± 0.23	1.4 ± 0.053
SAGGDATIVLTDFPEDDPEARIRTARNLYRELKAAGPPLRINILTDTPLGREVADYLESEGIEVGLGSAGGS [r16_450_TrMRF]	-0.206 ± 0.26	-0.33 ± 0.2	-0.828 ± 0.43
SAGGDDKWKIEIDIQPHDDYWVITARIRDPNGKERERMFMMPPDNIKKILNELPPEIEDIEVHRVPNSAGGS [r16_298_TrROS]	2.72 ± 0.045	2.53 ± 0.17	2.11 ± 0.074
SAGGDEIAKEIANHAREQGYKVEVKVERDEDGMVKIDVEMSMPNGRRVTFSITINPDGIEIQSIEVTPSAGG [r13_203_TrROS]	4.41 ± 0.067	3.97 ± 0.15	2.65 ± 0.12
SAGGDKDNKPPIPTKTITFMLPYDSPEDAKDYAEEIARELFQEEGIPIKVTVQYNPESGWVWVTITIYSAGG [r13_517_TrROS]	4.57 ± 0.075	4.32 ± 0.12	3.49 ± 0.1
SAGGDLEAKPFEITFVIKAKPFPTPDGRLVETPEKVFKLKVLVVRGPNETRLFVFDEDGNLLFTSNLSAGGS [r16_92_TrMRF]	3.888 ± 0.022	3.39 ± 0.064	2.37 ± 0.051
SAGGDLIERVAKELMEKFPMKPGEPRPITIEIPYPDGYRIKVDIPVRVNPDNGEFRFKFDIKEIEPWSAGGS [r16_634_TrROS]	1.43 ± 0.16	1.25 ± 0.13	1.02 ± 0.052
SAGGDPDEIKKVIITARIYRPDPDGNIHTATIPIIIEGPLDEVIEKVAKEIEEAFGTKIVEITVEKGSAGGS [r16_511_TrMRF]	1.2 ± 0.07	1.36 ± 0.14	1.54 ± 0.047
SAGGDPETPTTITAPVDPATGTTTWVVNDGSSTSTIPSSLSLEELKKLGLTKAEPLPDGTLRFTILASAGGS [r8_382_JUSTAS]	0.494 ± 0.081	0.495 ± 0.053	0.289 ± 0.022
SAGGDPGWVRVTAEIELDGKNLKIEWWYMPNGNYYYNIEFPNGKEIEIMIPMEPGDVEEFAEYIAKKLSAGG [r13_296_TrROS]	2.838 ± 0.028	2.66 ± 0.11	2.32 ± 0.069
SAGGDPSATPVVVEFTLPDGARAVATTFPSGVVVARVFNPVTGRTTEVTVTVVPESATATVTVRPNPDSAGG [r13_822_TrMRF]	1.13 ± 0.067	1.02 ± 0.053	0.762 ± 0.027
SAGGDVTIEWFPMSEEEMKKMMEEMPPNTIMIPFPGNGYFIPVRVPDDPEEADKIAEEIRKWLEQLPSAGGS [r16_311_TrROS]	1.44 ± 0.024	1.62 ± 0.063	1.81 ± 0.057
SAGGDVVRVRVRLRRFEIVGDRPVYRPVDIDILAEADGDPEAARRRAEREARRLAEEYGAEIEDIELFPSAG [r5_497_TrMRF]	2.57 ± 0.04	2.4 ± 0.083	2.15 ± 0.026
SAGGEEELKKNPDLIVIKITIRNKETGEEIEELEIVLSKEELEELLETLRKLLPPGWEIVKVEIRKLPSAGG [r13_849_TrROS_Hall]	3.02 ± 0.14	4 ± 0.3	4.11 ± 0.24
SAGGEEIEAEVVEVRTFTLENGFEVTTTLIRVDGKLILITSVKKTKNGKWEVVEVKELPLEELSPEELSAGG [r13_494_TrROS_Hall]	2.73 ± 0.035	2.93 ± 0.14	3.35 ± 0.14
SAGGEELARRLAEELRELGLEVEVVDVDLEEGKITIRVRPAPPPPPVTERRTRRRPDGREVTEERVLSAGGS [r8_318_TrROS_Hall]	0.0369 ± 0.15	0.214 ± 0.16	0.282 ± 0.21
SAGGEELMKDHPNFIFITIEIRHPGGGKEKPKFMIMIPNNTPEELIDELRDFLPPGYKIKDVEIHYMDSAGG [r13_849_TrROS]	1.72 ± 0.096	2.14 ± 0.17	2.41 ± 0.13
SAGGEEVILTLPDGSPVRVIPDEGTASFELPGYRVETEVLPDGRIRLTVRDPAAGALVRELDLGLLRSAGGS [r16_760_JUSTAS]	0.789 ± 0.068	0.623 ± 0.039	0.158 ± 0.039
SAGGEEVKTIKVTLAFYNPETGELVAEVEATATLVDGKLVLTTTVTFRPAPAGEPVTVTVTVVEPEESAGGS [r16_327_TrROS_Hall]	3.63 ± 0.13	3.39 ± 0.24	2.93 ± 0.39
SAGGEEVTIKLSDELRDLVPDAEIRVERLEDGTLRIEIRVRLPAPEPPEPVERREERRVEVRVEVRLESAGG [r13_129_TrROS_Hall]	2.22 ± 0.22	2.14 ± 0.13	1.98 ± 0.16
SAGGEGEILDKKEFTFPDNVKLEVYVFKVGDKYFVKVKTTITVPENPTKPKKPLKKITPEDIKKALEKSAGG [r13_760_TrMRF]	1.88 ± 0.21	1.5 ± 0.5	0.151 ± 0.33

Sequence	folding stability dG unfold [1] [kcal/mol]	folding stability dG unfold [2] [kcal/mol]	folding stability dG unfold [3] [kcal/mol]
SAGGEGKEDKKIKVLFINVPVDKPDLLLKLAKEIIEKKEYDIIIVDHPENYKALKEAFPEYDIPIILGSAGG [r13_353_TrMRF]	3.673 ± 0.022	3.29 ± 0.069	2.04 ± 0.064
SAGGEIERDPNGWIRMTYTLPGFGYKIEITFRVPDNGMMQIEDIDIEPIPPVPPPPPPKYDPNGEWKYSAGG [r13_646_TrROS]	2.25 ± 0.041	2.02 ± 0.17	1.64 ± 0.08
SAGGEIKIKKSKDGKTLYIEIKIKAGEKVKLKLTITLPNGKKAEITSVEIIEKNGELYIKVEIKIKDSAGGS [r16_499_TrROS_Hall]	4.67 ± 0.4	4.42 ± 0.42	3.92 ± 0.28
SAGGEKATVTVVYDPEKGYVVVPVDIPFLDENGKPKKLKLVFVLPASPEAEEAVKELAKELGLESVESAGGS [r8_381_TrMRF]	2.38 ± 0.059	2.11 ± 0.2	1.37 ± 0.1
SAGGEKIKEALEKVPGLEIVKVEKKDGKVYIHIKAKSEEQRKKAAEALKKLPGIKEVKIEVIPEEELSAGGS [r16_671_TrROS_Hall]	2.88 ± 0.064	3.03 ± 0.21	3.28 ± 0.15
SAGGEKIKLKVVIKVPKELKNLSKEEIEELLKKKLGPNYKITKVEIKVEKNENGEEYLVVEVEIEKESAGGS [r16_408_TrROS_Hall]	3.37 ± 0.13	3.58 ± 0.23	3.64 ± 0.21
SAGGEKITAEELVEEIQKIFNENGMKPVAIEPMPDGGVFIHFKNPYMIMIDAEEGKIEIMPPEDMEDFSAGG [r13_717_TrROS]	1.49 ± 0.13	1.09 ± 0.27	1.04 ± 0.068
SAGGEKITIEVDGKKVTITKNEDGTITITIEHNGKVIKTITLPKNLEKITELTLTFNGKTYTITIEPSAGGS [r16_452_TrROS_Hall]	5.013 ± 0.048	4.97 ± 0.11	3.9 ± 0.13
SAGGEKRYLVRVRAYYRFEEGERELDLEVEVTSPEEAKELLEKIATRLRKLYPDRIRIEVEIRPLEESAGGS [r16_475_TrMRF]	5.1 ± 0.12	4.94 ± 0.14	4.53 ± 0.17
SAGGEKTLTVEYNPEDDYLTFTLTLTRPGYDPVTGKPREYKVTLTFTVPLNEATPEHVKLALEIYEKDSAGG [r13_980_TrMRF]	4.71 ± 0.15	4.28 ± 0.56	2.88 ± 0.13
SAGGEKTTLTLTLTLTLPPVTTVTYDPETGELRVETRTTTLTLTITVTADSPEEAERALRELLKKLGLSAGG [r13_35_TrROS_Hall]	6.41 ± 0.27	> 6	4.4 ± 0.17
SAGGEKTYMVRIDIEYRTPGKPREIDLMVPIKSPEQAREQLDKIADFLAKEHPDNWRIKVEIYPMEDSAGGS [r16_475_TrROS]	2.49 ± 0.068	2.16 ± 0.29	1.28 ± 0.18
SAGGELIEKAIEEALENGEEVEIEVVLRDENGELYRIRIRVRRERLPDGEVKTEIEIEIERFPLPEESAGGS [r16_323_TrROS_Hall]	4.66 ± 0.11	4.6 ± 0.12	4.28 ± 0.2
SAGGELVLLSESESVFTSPDGSRTVVRTLLTERPGDLLVEITTTTTIEPESGAVTTTTTTRVLPRRESAGGS [r8_264_JUSTAS]	3.021 ± 0.013	2.8 ± 0.038	2.33 ± 0.043
SAGGEMTAEERARRLAERLAEELERRTGRKVEVVSVEVEYDPETDEVTVRIEIRLEDGSTLTIELRLSAGGS [r8_372_TrROS_Hall]	3.41 ± 0.11	4.33 ± 0.27	4.86 ± 0.26
SAGGESTPEIEPVATLELPTPDGRPITVEVYRLKDGTVRVVVRNPNPPETITLTIPAKEGETIPIFLSAGGS [r16_566_TrMRF]	2.2 ± 0.045	2.11 ± 0.067	1.9 ± 0.04
SAGGETKTITIKVDGKLVTITVKKNKNGEELVTVKVYENGKLVEEVTMSKDELEELAKKLGLSVEELKSAGG [r13_108_TrROS_Hall]	3.81 ± 0.051	3.62 ± 0.1	3.27 ± 0.091
SAGGETVEIEVEMSPEEVREAIKKAAEALDAEVVEVKYDKETKKVTITVKKGATEEELRKALEEALKSAGGS [r8_338_TrROS_Hall]	1.78 ± 0.095	2.19 ± 0.095	2.47 ± 0.12
SAGGETVTITIKVKGKEITVTFNKDTGKVTITDKDTGKTVTITLPAGEEPTLEELLEALKKLGFEIEPSAGG [r13_687_TrROS_Hall]	4.18 ± 0.095	4.32 ± 0.099	4.11 ± 0.18
SAGGEVIELKIKFKTPEQREKLKEIAKKLNAEVVEEKDGEVIIRFKTPEQAERALKEAEKLGAEVELSAGGS [r16_88_TrROS_Hall]	4.47 ± 0.097	4.48 ± 0.17	4.29 ± 0.26
